Reference: the supplement of paper PMC9233669
Variants at the floor of the assay were thinned out.

How the values were obtained:
biotinyl-Phe-oxazolone = test: self-aminoacylation, catalytic enhancement (BFO) (fold over background); higher = more active; k-Seq, kA / k0A0; sequences stand for … in GGGAAUGGAUCCACAUCUACGAAUUC…UUCACUGCAGACUUGACGAAGCUG
Outline: (§1)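 Mutagenized RNA pools (0.43 μM; 21-nt variable region) were treated with 2–1250 μM of each biotinyl-aminoacyl-oxazolone. Conditions were 50 μL HEPES/NaCl/KCl/MgCl2/CaCl2 buffer, 5% acetonitrile, pH 6.9–7.0, room temperature, 90 minutes. Catalytic enhancement, the median kA relative to the uncatalyzed rate, was derived from streptavidin capture, qPCR and Illumina sequencing.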

biotinyl-Trp-oxazolone = test: self-aminoacylation, catalytic enhancement (BWO) (fold over background); higher = more active; k-Seq, kA / k0A0; sequences stand for … in GGGAAUGGAUCCACAUCUACGAAUUC…UUCACUGCAGACUUGACGAAGCUG
Outline: as §1

| Sequence | self-aminoacylation (biotinyl-Phe-oxazolone) | self-aminoacylation (biotinyl-Trp-oxazolone) |
| --- | --- | --- |
| AAGCUUGCUAAUAGUCGCUAG [Fam3.1 aminoacylation ribozyme variant] | 2.31 | 2 |
| AAGGAUGCUAAUAGUCGCAAG [Fam3.1 aminoacylation ribozyme variant] | 13.7 | 5.63 |
| AAGGUUGCUAAUAGUCGUAAG [Fam3.1 aminoacylation ribozyme variant] | 13.7 | 4.23 |
| AAGUGUGCUAAAAGUCGCAAG [Fam3.1 aminoacylation ribozyme variant] | 10.1 | 4.61 |
| AAGUGUGCUAACAGUCGCAAG [Fam3.1 aminoacylation ribozyme variant] | 12.8 | 4.85 |
| AAGUGUGCUCAUAGUCGCAAG [Fam3.1 aminoacylation ribozyme variant] | 4.43 | 2.34 |
| AAGUUAGCUAAUAGGCGCAAG [Fam3.1 aminoacylation ribozyme variant] | 2.32 | 2.47 |
| AAGUUGGCUAAUAGUCGAAAG [Fam3.1 aminoacylation ribozyme variant] | 2.91 | 2.27 |
| AAGUUGGCUAAUAGUCGCAAG [Fam3.1 aminoacylation ribozyme variant] | 4.46 | 2.29 |
| AAGUUUGCAAAUAGUCGCGAG [Fam3.1 aminoacylation ribozyme variant] | 2.69 | 3.06 |
| AAGUUUGCGAAUAGUCGCGAG [Fam3.1 aminoacylation ribozyme variant] | 8.44 | 2.14 |
| AAGUUUGCUAAAAGUCGAAAG [Fam3.1 aminoacylation ribozyme variant] | 4.76 | 2.17 |
| AAGUUUGCUAAUAGUCCCAAG [Fam3.1 aminoacylation ribozyme variant] | 5.64 | 2.12 |
| AAGUUUGCUAAUAGUCUCAAG [Fam3.1 aminoacylation ribozyme variant] | 15.4 | 4.26 |
| AAGUUUGCUAAUUGUCGCAAA [Fam3.1 aminoacylation ribozyme variant] | 8.83 | 2.49 |
| AAGUUUGGUCAUAGUCGCAAG [Fam3.1 aminoacylation ribozyme variant] | 2.71 | 2.16 |
| AAUGUUGCUAAUAGUCGCAAG [Fam3.1 aminoacylation ribozyme variant] | 2.37 | 2.02 |
| AAUUUUGCUGAUAGUCGCAAG [Fam3.1 aminoacylation ribozyme variant] | 2.05 | 2.31 |
| AUACUUCAAAAAAUCGGUCUG [Fam1A.1 aminoacylation ribozyme variant] | 4.26 | 3.25 |
| AUACUUCAAACAAUCGGGCUG [Fam1A.1 aminoacylation ribozyme variant] | 3.63 | 3.93 |
| AUACUUCAAACAAUCGGUCGG [Fam1A.1 aminoacylation ribozyme variant] | 5.46 | 4.83 |
| AUGUUUGCUAAUAGUCGUAAG [Fam3.1 aminoacylation ribozyme variant] | 18.7 | 5.05 |
| AUUCAGCUAGGUCAUCGGGUC [Fam2.2 aminoacylation ribozyme variant] | 13.5 | 3.24 |
| CAACACUUCAAGAAAUCGGUC [Fam1B.1 aminoacylation ribozyme variant] | 7.2 | 5.88 |

| Sequence | self-aminoacylation (biotinyl-Phe-oxazolone) | self-aminoacylation (biotinyl-Trp-oxazolone) |
| --- | --- | --- |
| CAACUUCAAACAAUCAGUCUG [Fam1A.1 aminoacylation ribozyme variant] | 29.7 | 11.2 |
| CAACUUCAAACAAUCCGUCUG [Fam1A.1 aminoacylation ribozyme variant] | 2.94 | 2.31 |
| CAACUUCAAAGAAUCGGUCUG [Fam1A.1 aminoacylation ribozyme variant] | 7.1 | 7.86 |
| CCAAACUUCAAGUAAUCGGUC [Fam1B.1 aminoacylation ribozyme variant] | 10.5 | 7.85 |
| CCAACCUUCAAGCAAUCGGUC [Fam1B.1 aminoacylation ribozyme variant] | 25.8 | 15.3 |
| CCACACUUCAAUCAAUCAGUC [Fam1B.1 aminoacylation ribozyme variant] | 22.8 | 7.45 |
| CCACAGUUCAAACAAUCGGUC [Fam1B.1 aminoacylation ribozyme variant] | 18.2 | 12 |
| CCACCCUUCAAGCCAUCGGUC [Fam1B.1 aminoacylation ribozyme variant] |  | 2.57 |
| CCACGCUUCAAGUAAUCGGUC [Fam1B.1 aminoacylation ribozyme variant] | 18.1 | 12.9 |
| CCACUCUUCAAGCAAUCGGUC [Fam1B.1 aminoacylation ribozyme variant] | 32.1 | 15.1 |
| CCACUUCAAACAAUCGGUAUG [Fam1A.1 aminoacylation ribozyme variant] | 21.3 | 12.7 |
| CCAGACUUCAAGAAAUCGGUC [Fam1B.1 aminoacylation ribozyme variant] | 8.29 | 6.84 |
| CCAGACUUCAAUCAAUCGGUC [Fam1B.1 aminoacylation ribozyme variant] | 34.2 | 21.1 |
| CCAGCCUUCAAGCAAUCGGUC [Fam1B.1 aminoacylation ribozyme variant] | 30.7 | 21.3 |
| CGAAUUCAAACAAUCGGUCUG [Fam1A.1 aminoacylation ribozyme variant] | 4.97 | 3.38 |
| CGACACUUCAAGCAAUCGGUU [Fam1B.1 aminoacylation ribozyme variant] |  | 2.37 |
| CGACUUCAAACAAUCGGACUG [Fam1A.1 aminoacylation ribozyme variant] | 6.95 | 3.53 |
| CGACUUCAAACAAUCGGUCCG [Fam1A.1 aminoacylation ribozyme variant] | 4.63 | 4.64 |
| CGUCACUUCAAGCAAUCGGUC [Fam1B.1 aminoacylation ribozyme variant] | 22 | 11.1 |
| CUACUUCAAAAAAUCGGGCUG [Fam1A.1 aminoacylation ribozyme variant] | 3.05 | 3.06 |
| CUACUUCAAAAAAUCGGUAUG [Fam1A.1 aminoacylation ribozyme variant] | 4.4 | 2.5 |
| CUACUUCAAACAAUCAGUCGG [Fam1A.1 aminoacylation ribozyme variant] | 11.2 | 5.8 |
| CUACUUCAAACAAUCGGUCCC [Fam1A.1 aminoacylation ribozyme variant] | 11.1 | 6.63 |
| GUACUACAAACAAUCGGUCUG [Fam1A.1 aminoacylation ribozyme variant] |  | 2.14 |
